Molecular target: His-vimentin, purified recombinant, polymerized (UniProt P08670)
Experiment: co-sedimentation

His-vimentin, purified recombinant, polymerized, sequence (P08670 whole entry): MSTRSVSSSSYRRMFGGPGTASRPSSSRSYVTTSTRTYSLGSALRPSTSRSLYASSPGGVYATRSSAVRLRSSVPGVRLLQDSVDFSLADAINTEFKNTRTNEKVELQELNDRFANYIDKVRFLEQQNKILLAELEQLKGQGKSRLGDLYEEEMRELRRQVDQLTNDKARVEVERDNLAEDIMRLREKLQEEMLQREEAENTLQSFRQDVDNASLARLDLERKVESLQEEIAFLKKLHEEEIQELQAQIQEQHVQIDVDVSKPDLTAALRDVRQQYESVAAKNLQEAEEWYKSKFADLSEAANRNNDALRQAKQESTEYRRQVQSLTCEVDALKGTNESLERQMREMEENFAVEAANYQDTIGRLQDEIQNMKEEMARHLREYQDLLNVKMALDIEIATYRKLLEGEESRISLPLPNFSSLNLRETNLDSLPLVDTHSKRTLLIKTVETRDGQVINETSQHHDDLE

percent of total APC cosedimented: 18.5%
Substance: adenomatous polyposis coli (APC), endogenous in rat primary astrocytes, P70478 1-2842

— publication PMC3563686
